The values below come from US20050148532A1.

The target of this experiment is histidine tagged p85 with serine 83 mutated to alanine (p85^S83A) (UniProt P27986). Description: cell-based or functional assay.

Sequence of HA-14-3-3 zeta (hemagglutinin-tagged 14-3-3 zeta) (P63103 whole entry): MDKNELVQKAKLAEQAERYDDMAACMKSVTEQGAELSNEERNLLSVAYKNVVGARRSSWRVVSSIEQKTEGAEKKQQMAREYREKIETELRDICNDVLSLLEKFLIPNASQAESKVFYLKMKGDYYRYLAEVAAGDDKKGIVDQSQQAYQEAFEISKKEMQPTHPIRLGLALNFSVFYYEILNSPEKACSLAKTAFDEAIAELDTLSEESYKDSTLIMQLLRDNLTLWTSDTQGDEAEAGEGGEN

“HA-14-3-3 zeta (hemagglutinin-tagged 14-3-3 zeta) (from UniProt P63103 1-245)” came in with a decrease in activation of PI3K (production of PIP3 in PY20 immunoprecipitates) of 35%.
